Data taken from publication doi:10.1101/2023.04.21.537812 (bioRxiv, 2023).

Target: the molecule itself
Test: SEC

B1: uncleaved Ycf1p-3xFLAG (natural protein, S. cerevisiae, UniProt P39109 1-1515, looked up)
chain: MAGNLVSWACKLCRSPEGFGPISFYGDFTQCFIDGVILNLSAIFMITFGIRDLVNLCKKKHSGIKYRRNWIIVSRMALVLLEIAFVSLASLNISKEEAENFTIVSQYASTMLSLFVALALHWIEYDRSVVANTVLLFYWLFETFGNFAKLINILIRHTYEGIWYSGQTGFILTLFQVITCASILLLEALPKKPLMPHQHIHQTLTRRKPNPYDSANIFSRITFSWMSGLMKTGYEKYLVEADLYKLPRNFSSEELSQKLEKNWENELKQKSNPSLSWAICRTFGSKMLLAAFFKAIHDVLAFTQPQLLRILIKFVTDYNSERQDDHSSLQGFENNHPQKLPIVRGFLIAFAMFLVGFTQTSVLHQYFLNVFNTGMYIKSALTALIYQKSLVLSNEASGLSSTGDIVNLMSVDVQKLQDLTQWLNLIWSGPFQIIICLYSLYKLLGNSMWVGVIILVIMMPLNSFLMRIQKKLQKSQMKYKDERTRVISEILNNIKSLKLYAWEKPYREKLEEVRNNKELKNLTKLGCYMAVTSFQFNIVPFLVSCCTFAVFVYTEDRALTTDLVFPALTLFNLLSFPLMIIPMVLNSFIEASVSIGRLFTFFTNEELQPDSVQRLPKVKNIGDVAINIGDDATFLWQRKPEYKVALKNINFQAKKGNLTCIVGKVGSGKTALLSCMLGDLFRVKGFATVHGSVAYVSQVPWIMNGTVKENILFGHRYDAEFYEKTIKACALTIDLAILMDGDKTLVGEKGISLSGGQKARLSLARAVYARADTYLLDDPLAAVDEHVARHLIEHVLGPNGLLHTKTKVLATNKVSALSIADSIALLDNGEITQQGTYDEITKDADSPLWKLLNNYGKKNNGKSNEFGDSSESSVRESSIPVEGELEQLQKLNDLDFGNSDAISLRRASDATLGSIDFGDDENIAKREHREQGKVKWNIYLEYAKACNPKSVCVFILFIVISMFLSVMGNVWLKHWSEVNSRYGSNPNAARYLAIYFALGIGSALATLIQTIVLWVFCTIHASKYLHNLMTNSVLRAPMTFFETTPIGRILNRFSNDIYKVDALLGRTFSQFFVNAVKVTFTITVICATTWQFIFIIIPLSVFYIYYQQYYLRTSRELRRLDSITRSPIYSHFQETLGGLATVRGYSQQKRFSHINQCRIDNNMSAFYPSINANRWLAYRLELIGSIIILGAATLSVFRLKQGTLTAGMVGLSLSYALQITQTLNWIVRMTVEVETNIVSVERIKEYADLKSEAPLIVEGHRPPKEWPSQGDIKFNNYSTRYRPELDLVLKHINIHIKPNEKVGIVGRTGAGKSSLTLALFRMIEASEGNIVIDNIAINEIGLYDLRHKLSIIPQDSQVFEGTVRENIDPINQYTDEAIWRALELSHLKEHVLSMSNDGLDAQLTEGGGNLSVGQRQLLCLARAMLVPSKILVLDEATAAVDVETDKVVQETIRTAFKDRTILTIAHRLNTIMDSDRIIVLDNGKVAEFDSPGQLLSDNKSLFYSLCMEAGLVNEN
Does B1 bind?
Result: binds
